Results taken from publication PMC3088474 (Current biology : CB, 2011).

Biological target: T1, MBP-Rng2-1306-end (fission yeast, UniProt O14188 1306-1489)
T1 sequence (looked up): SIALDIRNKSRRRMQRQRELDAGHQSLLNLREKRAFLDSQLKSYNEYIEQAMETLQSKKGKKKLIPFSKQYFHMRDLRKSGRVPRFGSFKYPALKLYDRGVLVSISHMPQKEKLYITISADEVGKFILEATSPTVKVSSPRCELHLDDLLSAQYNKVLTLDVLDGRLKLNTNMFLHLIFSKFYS
Test: pull-down

binding result: binds
B1: GST-Mid1 1–100 (domain or fragment, fission yeast, UniProt P78953 1-100, looked up)
chain: MKEQEFSYREAKDVSLDSKGLENSFLSSPNREKTPLFFEGNSNETSGYDQTKNFTHGDGDMSLGNLSELNVATDLLESLDLRSMYMHGYGHLDSSFSSQH
